Data taken from PMC4022648.
Where “and” joins values, the source holds several entries; their conditions need not be identical. Identical values can stand only once.

Legend:
[1] = target: naïve Hsp60 (human Hsp60 with its mitochondrial import signal) (human) (UniProt P10809); experiment: static light scattering; Rayleigh ratio at 90° divided by concentration; naïve Hsp60 at 1.6-47.6 µM; compared with ideal lines for tetradecamer (882 kDa) and heptamer (441 kDa)
[2] = target: naïve Hsp60 (human Hsp60 with its mitochondrial import signal) (human) (UniProt P10809); experiment: SAXS; 20 °C, Guinier analysis; naïve Hsp60 at 79.5 µM, GroEL at 52.5 µM
[3] = target: naïve Hsp60 (human Hsp60 with its mitochondrial import signal) (human) (UniProt P10809); experiment: SAXS; 20 °C, Guinier analysis; naïve Hsp60 at 23.8 µM
[4] = target: naïve Hsp60 (human Hsp60 with its mitochondrial import signal) (human) (UniProt P10809); experiment: SEC; HPLC size exclusion, Shodex 806 and 804 in series, 24 °C, 20 mM Tris-HCl pH 8 + 10% glycerol; naïve Hsp60 at 0.8-16.0 µM, compared with GroEL at 7.0 µM and BSA
[5] = target: naïve Hsp60 (human Hsp60 with its mitochondrial import signal) (human) (UniProt P10809); experiment: native gel or EMSA; Blue native PAGE, 4-16% Bis-Tris gels, sample buffer with 1% digitonin and 0.5% DDM, pH 7.2, Coomassie G-250; naïve Hsp60 at 1.9-20.7 µM, GroEL at 1.0-18.9 µM

- stoichiometry N [1]: 7 and 14
- stoichiometry N [2]: 14
- stoichiometry N [3]: 7 and 14
- stoichiometry N [4]: 7 and 14
- stoichiometry N [5]: 7 and 14
Substance: naïve Hsp60 (human Hsp60 with its mitochondrial import signal) (from UniProt P10809 27-573) (natural protein)
